In publication doi:10.1101/2023.02.23.529646 (bioRxiv, 2023):

Legend:
[1] = target: T1, ACAD9WT (res. 38-621) (human, UniProt Q9H845 38-621); test: ITC
T1 sequence: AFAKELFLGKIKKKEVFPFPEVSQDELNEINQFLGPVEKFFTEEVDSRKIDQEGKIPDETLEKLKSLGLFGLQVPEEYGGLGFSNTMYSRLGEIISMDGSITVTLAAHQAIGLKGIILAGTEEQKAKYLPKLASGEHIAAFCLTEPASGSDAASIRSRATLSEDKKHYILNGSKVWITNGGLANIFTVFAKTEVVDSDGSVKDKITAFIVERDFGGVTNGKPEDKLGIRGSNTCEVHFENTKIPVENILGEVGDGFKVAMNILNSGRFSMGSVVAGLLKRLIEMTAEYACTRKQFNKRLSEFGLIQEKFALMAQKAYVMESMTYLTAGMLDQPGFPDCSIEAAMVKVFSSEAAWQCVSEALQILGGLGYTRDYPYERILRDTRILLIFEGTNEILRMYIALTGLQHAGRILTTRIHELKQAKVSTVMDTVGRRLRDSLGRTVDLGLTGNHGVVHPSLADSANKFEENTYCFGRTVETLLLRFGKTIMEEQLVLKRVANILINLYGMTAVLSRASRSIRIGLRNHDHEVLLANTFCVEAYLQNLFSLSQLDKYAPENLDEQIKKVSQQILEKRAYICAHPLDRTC

[2] = target: T2, ACAD9_(S191A) (human, UniProt Q9H845 38-621, S191A); test: ITC
T2 sequence: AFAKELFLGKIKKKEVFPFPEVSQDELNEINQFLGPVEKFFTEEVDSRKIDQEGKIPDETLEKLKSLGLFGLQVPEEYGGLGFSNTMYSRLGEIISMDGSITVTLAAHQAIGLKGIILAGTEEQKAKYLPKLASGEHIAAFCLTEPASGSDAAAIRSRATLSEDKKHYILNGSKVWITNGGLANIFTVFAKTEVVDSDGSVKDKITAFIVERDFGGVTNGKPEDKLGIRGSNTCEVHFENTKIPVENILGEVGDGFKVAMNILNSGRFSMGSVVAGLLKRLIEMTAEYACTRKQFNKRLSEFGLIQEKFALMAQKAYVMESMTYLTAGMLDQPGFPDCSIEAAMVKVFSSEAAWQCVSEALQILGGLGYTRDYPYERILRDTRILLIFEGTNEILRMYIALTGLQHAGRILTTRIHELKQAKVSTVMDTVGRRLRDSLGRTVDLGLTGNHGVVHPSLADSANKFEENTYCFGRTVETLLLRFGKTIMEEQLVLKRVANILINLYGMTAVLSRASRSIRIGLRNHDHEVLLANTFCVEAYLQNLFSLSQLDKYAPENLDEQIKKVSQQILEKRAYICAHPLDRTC

[3] = target: T3, ACAD9_(A184S) (human, UniProt Q9H845 38-621, A184S); test: dynamic light scattering
T3 sequence: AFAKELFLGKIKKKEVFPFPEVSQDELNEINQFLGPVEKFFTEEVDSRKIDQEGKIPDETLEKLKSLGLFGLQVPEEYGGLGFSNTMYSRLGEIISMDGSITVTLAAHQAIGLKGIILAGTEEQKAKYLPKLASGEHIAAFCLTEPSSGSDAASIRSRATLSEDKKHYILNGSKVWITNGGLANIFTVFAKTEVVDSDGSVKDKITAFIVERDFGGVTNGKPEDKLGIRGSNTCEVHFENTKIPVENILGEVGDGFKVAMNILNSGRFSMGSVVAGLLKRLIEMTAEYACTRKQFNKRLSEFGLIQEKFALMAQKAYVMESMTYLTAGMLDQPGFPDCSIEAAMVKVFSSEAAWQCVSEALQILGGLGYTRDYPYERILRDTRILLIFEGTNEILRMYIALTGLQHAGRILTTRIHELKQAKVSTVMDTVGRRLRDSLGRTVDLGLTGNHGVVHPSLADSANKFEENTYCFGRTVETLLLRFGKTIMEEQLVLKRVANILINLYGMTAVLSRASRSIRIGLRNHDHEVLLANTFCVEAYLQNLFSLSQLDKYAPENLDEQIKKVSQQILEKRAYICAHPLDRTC

[4] = target: T4, ACAD9_(SR194TS) (human, UniProt Q9H845 38-621, SR194TS); test: dynamic light scattering
T4 sequence: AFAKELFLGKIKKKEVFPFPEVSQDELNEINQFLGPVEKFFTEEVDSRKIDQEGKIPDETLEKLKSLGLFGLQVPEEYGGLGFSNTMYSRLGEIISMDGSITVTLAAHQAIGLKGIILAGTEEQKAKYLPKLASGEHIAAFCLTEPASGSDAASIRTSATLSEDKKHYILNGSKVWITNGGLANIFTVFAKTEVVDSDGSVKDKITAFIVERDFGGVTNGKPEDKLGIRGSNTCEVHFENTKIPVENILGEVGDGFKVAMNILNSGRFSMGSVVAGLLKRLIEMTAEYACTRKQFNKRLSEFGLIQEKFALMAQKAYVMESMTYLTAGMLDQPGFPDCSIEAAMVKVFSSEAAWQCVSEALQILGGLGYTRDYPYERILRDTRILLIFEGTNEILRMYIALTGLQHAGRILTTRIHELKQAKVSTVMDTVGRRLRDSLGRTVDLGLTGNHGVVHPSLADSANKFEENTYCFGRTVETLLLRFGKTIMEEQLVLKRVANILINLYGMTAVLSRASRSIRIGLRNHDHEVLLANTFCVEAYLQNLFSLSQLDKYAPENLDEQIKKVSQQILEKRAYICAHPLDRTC

[5] = target: T1, ACAD9WT (res. 38-621); test: cryo-EM structure

B1: ECSIT_(CTER) (residues 221-431) (domain or fragment)
chain: QDPVELAMFGLRHMEPDLSARVTIYQVPLPKDSTGAADPPQPHIVGIQSPDQQAALARHNPARPVFVEGPFSLWLRNKCVYYHILRADLLPPEEREVEETPEEWNLYYPMQLDLEYVRSGWDNYEFDINEVEEGPVFAMCMAGAHDQATMAKWIQGLQETNPTLAQIPVVFRLAGSTRELQTSSAGLEEPPLPEDHQEEDDNLQRQQQGQS
Kd [1]: 1450 nM | Kd [2]: 3930 nM | binding result [3]: binds | binding result [4]: binds | stoichiometry N [5]: 1 ECSIT_(CTER) per ACAD9 protomer
